Measured values: patent US20170369590A1 (Genmab, published 2017)

B1: HuMab 059 (antibody, V domains shown)
VH: QVQLVQSGAEVKKPGASVRVPCKASGYTFTRYGISWVRQAPGQGLEWMGWISAYNGKTYYAQKLQGRVTMTTDTSTSTAYMELRSLRSDDTAVYYCARSPLLWFEELYFDYWGQGTLVTVSS
VL: EIVLTQSPGTLSLSPGERATLSCRASQSVSSTYLAWYQQKPGQAPRLLIYGASSRATGIPDRFSGSGSGTDFTLTISRLEPEDFAVYYCQQYGTSLFTFGPGTKVDIK
notes: also called PC1014-059
B2: HuMab 106 (antibody, V domains shown)
VH: EVQLVQSGAEVKKPGESLKISCKGSGYSFTRYWIGWVRQMPGKGLEWMGIIYPGDSDTRYSPSFQGQVTISADKSISTAYLQWSSLKASDTAMYYCARLTGDRGFDYYSGMDVWGQGTTVTVSS
VL: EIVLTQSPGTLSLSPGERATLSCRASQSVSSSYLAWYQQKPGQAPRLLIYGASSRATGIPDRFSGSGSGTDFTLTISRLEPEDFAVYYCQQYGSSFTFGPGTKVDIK
B3: HuMab 111 (antibody, V domains shown)
VH: QVQLVQSGAEVKKPGSSVKVSCKASGGTFSSYGISWVRQAPGPGLEWMGRIIPILGIANYAQKFQGRVTITADKSTNTAYMELSSLRSEDTAVYYCARDQEYSSNWYYWGQGTLVTVSS
VL: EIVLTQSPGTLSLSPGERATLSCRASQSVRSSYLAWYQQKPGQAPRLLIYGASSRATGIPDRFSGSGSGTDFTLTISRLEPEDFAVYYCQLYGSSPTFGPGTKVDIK

What was measured:
HER2ECDHis [1] = target: T1, HER2ECDHis (human, UniProt P04626 23-653, biotinylated in the cross-block ELISA (sites not given)); test: ELISA; competitor 005
T1 construct: range 1-653; expressed in HEK-293F; also called soluble HER2; biotinylated HER2ECDHis

[2] = target: T2, human epidermal growth factor receptor 2 (HER2), membrane-bound on cells (human, UniProt P04626 23-1255); test: cell-based or functional assay
HER2ECDHis [3] = target: T1, HER2ECDHis; test: ELISA; competitor 106
Procedure: (§1) Next, the ELISA wells were washed with PBST (PBS supplemented with 0.05% Tween-20 [Sigma-Aldrich, Zwijndrecht, The Netherlands]) and blocked for one hour at room temperature (RT) with PBSTC (PBST supplemented 2% [v/v] chicken serum [Gibco, Paisley, Scotland]). The ELISA wells were then washed with PBST and incubated for one hour at RT with HER2ECDHis serially diluted in PBSTC (0.25-2 μg/mL in 2-fold dilutions). […] The plate was thereafter washed with PBST and incubated for one hour with 0.1 μg/mL Streptavidin-poly-HRP (Sanquin, Amsterdam, The Netherlands) diluted in PBST. After washing, the reaction was visualized through a 15 minutes incubation with 2,2′-azino-bis (3-ethylbenzothiazoline-6-sulfonic acid) (ABTS: one ABTS tablet diluted in 50 mL ABTS buffer (Roche Diagnostics, Almere, The Netherlands)) at RT protected from light. The colorization was stopped by adding an equal volume of oxalic acid (Sigma-Aldrich, Zwijndrecht, The Netherlands). Fluorescence at 405 nm was measured on a microtiter plate reader (Biotek Instruments, Winooski, USA).
(§2) Each HER2 antibody was coated to the ELISA wells at the sub-optimal dose that was determined as described above. After blocking of the ELISA wells, the wells were incubated with the predetermined concentration of 1 μg/mL biotinylated HER2ECDHis in the presence or absence of an excess of a second (competitor) HER2 antibody. The ELISA was then performed as described above. […] Percentage competition was then determined as 100 minus the percentage of inhibition.

HER2ECDHis [4] = target: T1, HER2ECDHis; test: ELISA; competitor 111
Procedure: as §1, §2

HER2ECDHis [5] = target: T1, HER2ECDHis; test: ELISA; competitor 060
Procedure: as §1, §2

HER2ECDHis [6] = target: T1, HER2ECDHis; test: ELISA; competitor 059
Procedure: as §1, §2

HER2ECDHis [7] = target: T1, HER2ECDHis; test: ELISA; competitor C1
Procedure: as §1, §2

HER2ECDHis [8] = target: T1, HER2ECDHis; test: ELISA; competitor F5
Procedure: as §1, §2

HER2ECDHis [9] = target: T1, HER2ECDHis; test: ELISA; competitor 006
Procedure: as §1, §2

HER2ECDHis [10] = target: T1, HER2ECDHis; test: ELISA; competitor Tras
Procedure: as §1, §2

HER2ECDHis [11] = target: T1, HER2ECDHis; test: ELISA; competitor Pert
Procedure: as §1, §2

[12] = target: T2, human epidermal growth factor receptor …; test: cell-based or functional assay; remark: listed apart in the source

Row | Binder | % binding vs no competitor (HER2ECDHis [1]) | EC50, fab-CypHer5E internalization, AU565 [2] | Maximal MFI, fab-CypHer5E internalization, AU565 [2] | % binding vs no competitor (HER2ECDHis [3]) | % binding vs no competitor (HER2ECDHis [4]) | % binding vs no competitor (HER2ECDHis [5]) | % binding vs no competitor (HER2ECDHis [6]) | % binding vs no competitor (HER2ECDHis [7]) | % binding vs no competitor (HER2ECDHis [8]) | % binding vs no competitor (HER2ECDHis [9]) | % binding vs no competitor (HER2ECDHis [10]) | % binding vs no competitor (HER2ECDHis [11]) | % cells killed, AU565, anti-kappa-ETA'-conjugated [12] | EC50 of cell kill, AU565, anti-kappa-ETA'-conjugated [12]
1 | B1 | 13% | 14.8 ng/mL | 77100 MFI | 23% | 12% | 11% | 12% | 78% | 128% | 11% | 117% | 107% | 67% | 67.7 ng/mL
2 | B2 | 25% | 68.6 ng/mL | 57400 MFI | 26% | 21% | 23% | 25% | 471% | 495% | 25% | 323% | 275% | 59.1% | 108 ng/mL
3 | B3 | 51% | 35.2 ng/mL | 81700 MFI | 75% | 14% | 36% | 65% | 122% | 119% | 10% | 110% | 102% | 72% | 24.2 ng/mL
